Measured values from patent CN111995685A (SHANGHAI INST MATERIA MEDICA CAS; UNIV XIAMEN, dated 2020).

B1: T1# (antibody, V domains shown)
VH: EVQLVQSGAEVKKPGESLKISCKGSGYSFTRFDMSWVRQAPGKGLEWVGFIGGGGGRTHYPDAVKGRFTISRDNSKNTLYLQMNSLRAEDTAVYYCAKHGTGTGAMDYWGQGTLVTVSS
VL: EIVLTQSPGTLSLSPGERATLSCRASKSVDNYGYSFMHWYQQKPGQAPRLLIYRSANLASGVPSRFSGSGSGTDFTLTINSLEAEDAATYYCQQSNEDPTFGGGTKVEIK
notes: also called 抗PD-1单抗T1#; 人源化PD-1抗体T1#
B2: T16# (antibody, V domains shown)
VH: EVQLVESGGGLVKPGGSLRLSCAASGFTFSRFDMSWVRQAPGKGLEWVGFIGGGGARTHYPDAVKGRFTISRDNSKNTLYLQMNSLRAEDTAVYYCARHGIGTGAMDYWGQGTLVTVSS
VL: ETTLTQSPAFMSATPGDKVNISCRASKSVDNYGYSFMHWYQQKPGQAPRLLIYRSANLASGVPDRFSGSGSGTDFTLKISRVEAEDVGVYYCQQSNEDPTFGGGTKLEIK
notes: also called 抗PD-1单抗T16#
B3: T82# (antibody, V domains shown)
VH: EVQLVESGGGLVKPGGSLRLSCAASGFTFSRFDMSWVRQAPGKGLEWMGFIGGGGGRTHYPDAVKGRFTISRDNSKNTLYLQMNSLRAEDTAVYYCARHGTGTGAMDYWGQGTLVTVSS
VL: DIQMTQSPSTLSASVGDRVTISCRASKSVDNYGYSFMHWYQQKPGQAPRLLIYRSANLASGVPDRFSGSGSGTDFTLTISSLQAEDVAVYYCQQSNEDPTFGGGTKLEIK
notes: also called 抗PD-1单抗T82#

Key:
[1] = target: T1, 抗原人源PD-1蛋白 (human, UniProt Q15116 25-167, limits assumed); assay: ELISA of humanised Fab phage clones on PD-1 antigen
T1 construct: The construct is not described; also called 抗原PD-1; 抗原PD-1蛋白

[2] = target: T1, 抗原人源PD-1蛋白; assay: ELISA (binding and PD-L1 blocking) and BLI with PD-1 antigen, IgG format

T1 sequence (Q15116 25-167 limits assumed): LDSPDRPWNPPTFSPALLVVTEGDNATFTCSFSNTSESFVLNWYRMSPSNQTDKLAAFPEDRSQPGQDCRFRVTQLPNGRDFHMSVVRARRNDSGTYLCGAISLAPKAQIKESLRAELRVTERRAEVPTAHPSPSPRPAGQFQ

Row | Binder | binding result [1] | binding result [2]
1 | B1 | binds | 
2 | B2 |  | binds
3 | B3 |  | binds
